The source of these data is US5877293, “CDR grafted anti-CEA antibodies and their production” (Celltech Therapeutics Limited, dated 1999).

Assay [1] has as its target T1, Carcinoembryonic Antigen (CEA) (Homo sapiens (Human), UniProt P06731). In words: competition RIA against 125I-labelled murine or chimeric A5B7 IgG1 on CEA coated beads. The procedure: (§1) The competition RIA for anti-CEA activity involved competition of a series of ^125I-labelled murine or chimeric A5B7 IgG1 with humanised IgG or fragments thereof from culture supernatant samples for binding to CEA coated beads. Binding activity was determined by measuring bead associated radioactivity. The assay was calibrated by competition with standard preparations of chimeric or murine A5B7 IgG1 and plotting % bound cpm versus antibody concentration. Interpolated apparent A5B7 concentration of unknowns was normalised by dividing by the assembly assay result to give a specific activity. Finally specific activity was expressed as % relative potency by comparison to that obtained from a positive control chimeric A5B7 culture supernatant produced during the same experiment.
The relative potency of purified murine and chimeric A5B7 Fab' and F(ab')_2 fragments and murine IgG was investigated using the competition RIA. In addition, the direct binding ELISA was run in competition mode, by coincubation of the test specimen with murine A5B7 IgG1, for confirmation of relative potency.
The relative potencies of murine and chimeric IgGs and fragments were measured by the competition RIA.

For assay [2], the target named is T1, Carcinoembryonic Antigen (CEA). Put plainly: competition RIA on CEA coated beads, crude CHO supernatant. Here is the method:
as §1
In order to assess the CEA binding activity of the grafted chains co-expression, experiments in a transient CHO cell system were first performed with chimeric partners. Thus pAL43 and pAL44 were co-transfected into the CHO L761 h cell line (27) together with the chimeric A5B7 heavy chain expression plasmid pBG7, while pAL45 and pAL46 were co-transfected with the light chain expression plasmid pBG11. Co-transfections of pBG7 and pHMC19 were also performed to provide a chimeric/chimeric standard against which to compare activity of the chimeric/grafted hybrids. […] Competition RIAs were also performed on the crude CHO cell supernatants for gL1/gH2 and gL2/gH2.

For assay [3] the target is unchanged. In words: direct CEA binding ELISA, crude transient CHO supernatant. On the technique in general: In an ELISA, binding on a coated surface is turned into a signal by an enzyme label.
Assay [4] shares this target. Put plainly: direct CEA binding ELISA, crude transient CHO supernatant (pAL46 + pBG11).
Assay [5] has the same target. In words: direct CEA binding ELISA, crude transient CHO supernatant (pAL43 + pBG7).
Assay [6] shares this target. In words: direct CEA binding ELISA, crude transient CHO supernatant (pAL44 + pBG7).
Assay [7] shares this target. In words: direct CEA binding ELISA, crude transient CHO supernatant (pAL45 + pBG11).

B1: murine A5B7 F(ab')2 (other)
VH: EVKLVESGGGLVQPGGSLRLSCATSGFTFTDYYMNWVRQPPGKALEWLGFIGNKANGYTTEYSASVKGRFTISRDKSQSILYLQMNTLRAEDSATYYCTRDRGLRFYFDYWGQGTTLTVSS
VL: QTVLSQSPAILSASPGEKVTMTCRASSSVTYIHWYQQKPGSSPKSWIYATSNLASGVPARFSGSGSGTSYSLTISRVEAEDAATYYCQHWSSKPPTFGGGTKLEIKR
With B1, the “% Relative Potency” value in assay [1] was determined as 97%.

B2: Grafted A5B7 gL1/gH2 (antibody, V domains shown)
VH: EVQLLESGGGLVQPGGSLRLSCATSGFTFTDYYMNWVRQAPGKGLEWLGFIGNKANGYTTEYSASVKGRFTISRDKSKSTLYLQMNTLQAEDSAIYYCTRDRGLRFYFDYWGQGTLVTVSS
VL: QTVLTQSPSSLSVSVGDRVTITCRASSSVTYIHWYQQKPGLAPKSLIYATSNLASGVPSRFSGSGSGTDYTFTISSLQPEDIATYYCQHWSSKPPTFGQGTKVEVKR
In assay [2], B2 gave a Specific activity of 0.49 and a relative potency of 42%. Moreover, the “binding relative to the double chimeric antibody” value in assay [3] is about 60%.

B3: Grafted A5B7 gL2/gH2 (antibody, V domains shown)
VH: EVQLLESGGGLVQPGGSLRLSCATSGFTFTDYYMNWVRQAPGKGLEWLGFIGNKANGYTTEYSASVKGRFTISRDKSKSTLYLQMNTLQAEDSAIYYCTRDRGLRFYFDYWGQGTLVTVSS
VL: QTVLTQSPSSLSVSVGDRVTMTCRASSSVTYIHWYQQKPGLAPKSWIYATSNLASGVPSRFSGSGSGTDYTLTISSLQPEDIATYYCQHWSSKPPTFGQGTKVEVKR
As to B3, in assay [2], the Specific activity turned out to be 0.55 and the relative potency was 47%. Further, the “binding relative to the double chimeric antibody” value in assay [3] is about 60%.

B4: chimeric A5B7 light chain / grafted heavy chain gH2 hybrid (antibody, V domains shown)
VH: EVQLLESGGGLVQPGGSLRLSCATSGFTFTDYYMNWVRQAPGKGLEWLGFIGNKANGYTTEYSASVKGRFTISRDKSKSTLYLQMNTLQAEDSAIYYCTRDRGLRFYFDYWGQGTLVTVSS
VL: QTVLSQSPAILSASPGEKVTMTCRASSSVTYIHWYQQKPGSSPKSWIYATSNLASGVPARFSGSGSGTSYSLTISRVEAEDAATYYCQHWSSKPPTFGGGTKLEIKR
With B4, the binding result in assay [4] is “binds”.

B5: grafted light chain gL1 / chimeric A5B7 heavy chain hybrid (antibody, V domains shown)
VH: EVKLVESGGGLVQPGGSLRLSCATSGFTFTDYYMNWVRQPPGKALEWLGFIGNKANGYTTEYSASVKGRFTISRDKSQSILYLQMNTLRAEDSATYYCTRDRGLRFYFDYWGQGTTLTVSS
VL: QTVLTQSPSSLSVSVGDRVTITCRASSSVTYIHWYQQKPGLAPKSLIYATSNLASGVPSRFSGSGSGTDYTFTISSLQPEDIATYYCQHWSSKPPTFGQGTKVEVKR
Take B5: in assay [5], the binding result is listed as “binds”.

B6: chimeric A5B7 IgG1 (antibody, V domains shown)
VH: EVKLVESGGGLVQPGGSLRLSCATSGFTFTDYYMNWVRQPPGKALEWLGFIGNKANGYTTEYSASVKGRFTISRDKSQSILYLQMNTLRAEDSATYYCTRDRGLRFYFDYWGQGTTLTVSS
VL: QTVLSQSPAILSASPGEKVTMTCRASSSVTYIHWYQQKPGSSPKSWIYATSNLASGVPARFSGSGSGTSYSLTISRVEAEDAATYYCQHWSSKPPTFGGGTKLEIKR
Take B6: the “% Relative Potency” value in assay [1] came out at 100%. In assay [2], this molecule had a Specific activity of 1.17 and a relative potency of 100%.

B7: murine A5B7 Fab' (Fab, V domains shown)
VH: EVKLVESGGGLVQPGGSLRLSCATSGFTFTDYYMNWVRQPPGKALEWLGFIGNKANGYTTEYSASVKGRFTISRDKSQSILYLQMNTLRAEDSATYYCTRDRGLRFYFDYWGQGTTLTVSS
VL: QTVLSQSPAILSASPGEKVTMTCRASSSVTYIHWYQQKPGSSPKSWIYATSNLASGVPARFSGSGSGTSYSLTISRVEAEDAATYYCQHWSSKPPTFGGGTKLEIKR
modifications: rendered monovalent by alkylation
As to B7, in assay [1], the “% Relative Potency” value was determined as 8%.

B8: grafted light chain gL2 / chimeric A5B7 heavy chain hybrid (antibody, V domains shown)
VH: EVKLVESGGGLVQPGGSLRLSCATSGFTFTDYYMNWVRQPPGKALEWLGFIGNKANGYTTEYSASVKGRFTISRDKSQSILYLQMNTLRAEDSATYYCTRDRGLRFYFDYWGQGTTLTVSS
VL: QTVLTQSPSSLSVSVGDRVTMTCRASSSVTYIHWYQQKPGLAPKSWIYATSNLASGVPSRFSGSGSGTDYTLTISSLQPEDIATYYCQHWSSKPPTFGQGTKVEVKR
In the case of B8, in assay [6], the binding result is “binds”.

B9: chimeric A5B7 IgG4 Fab' delta cys (Fab, V domains shown)
VH: EVKLVESGGGLVQPGGSLRLSCATSGFTFTDYYMNWVRQPPGKALEWLGFIGNKANGYTTEYSASVKGRFTISRDKSQSILYLQMNTLRAEDSATYYCTRDRGLRFYFDYWGQGTTLTVSS
VL: QTVLSQSPAILSASPGEKVTMTCRASSSVTYIHWYQQKPGSSPKSWIYATSNLASGVPARFSGSGSGTSYSLTISRVEAEDAATYYCQHWSSKPPTFGGGTKLEIKR
As to B9, in assay [1], the “% Relative Potency” value was 20%.

B10: mouse monoclonal antibody A5B7 (murine A5B7 IgG1) (antibody, V domains shown)
VH: EVKLVESGGGLVQPGGSLRLSCATSGFTFTDYYMNWVRQPPGKALEWLGFIGNKANGYTTEYSASVKGRFTISRDKSQSILYLQMNTLRAEDSATYYCTRDRGLRFYFDYWGQGTTLTVSS
VL: QTVLSQSPAILSASPGEKVTMTCRASSSVTYIHWYQQKPGSSPKSWIYATSNLASGVPARFSGSGSGTSYSLTISRVEAEDAATYYCQHWSSKPPTFGGGTKLEIKR
Turning to B10, in assay [1], the “% Relative Potency” value was determined as 93%.

B11: chimeric A5B7 light chain / grafted heavy chain gH1 hybrid (antibody, V domains shown)
VH: EVQLLESGGGLVQPGGSLRLSCATSGFTFTDYYMNWVRQAPGKGLEWLGFIGNKANGYTTEYSASVKGRFTISRDKSKSTLYLQMNGLQAEVSAIYYCTRDRGLRFYFDYWGQGTLVTVSS
VL: QTVLSQSPAILSASPGEKVTMTCRASSSVTYIHWYQQKPGSSPKSWIYATSNLASGVPARFSGSGSGTSYSLTISRVEAEDAATYYCQHWSSKPPTFGGGTKLEIKR
B11: the binding result in assay [7] is “binds”.
